The source of these data is article PMC4256133 (Proteins, 2014).

This series concerns the molecule itself. The experiment in a line: crystal structure.

B1: Octaprenyl pyrophosphate synthase from Escherichia coli (enzyme, E. coli)
chain: MNLEKINELTAQDMAGVNAAILEQLNSDVQLINQLGYYIVSGGGKRIRPMIAVLAARAVGYEGNAHVTIAALIEFIHTATLLHDDVVDESDMRRGKATANAAFGNAASVLVGDFIYTRAFQMMTSLGSLKVLEVMSEAVNVIAEGEVLQLMNVNDPDITEENYMRVIYSKTARLFEAAAQCSGILAGCTPEEEKGLQDYGRYLGTAFQLIDDLLDYNADGEQLGKNVGDDLNEGKPTLPLLHAMHHGTPEQAQMIRTAIEQGNGRHLLEPVLEAMNACGSLEWTRQRAEEEADKAIAALQVLPDTPWREALIGLAHIAVQRDR
For orientation: stoichiometry N means the number of molecules, sites or subunits per partner or assembly. With B1, the “stoichiometry N” value is 2.
